Results on one molecule are retold here after doi:10.1101/2021.10.03.462214 (bioRxiv, 2021).

The target in the experiment is UBg_8UBgg (UniProt P0CG47, G76 deletion). Briefly: cryo-EM structure.

B1: Rpn10 (natural protein)
chain: MVLESTMVCVDNSEYMRNGDFLPTRLQAQQDAVNIVCHSKTRSNPENNVGLITLANDCEVLTTLTPDTGRILSKLHTVQPKGKITFCTGIRVAHLALKHRQGKNHKMRIIAFVGSPVEDNEKDLVKLAKRLKKEKVNVDIINFGEEEVNTEKLTAFVNTLNGKDGTGSHLVTVPPGPSLADALISSPILAGEGGAMLGLGASDFEFGVDPSADPELALALRVSMEEQRQRQEEEARRAAAASAAEAGIATTGTEDSDDALLKMTISQQEFGRTGLPDLSSMTEEEQIAYAMQMSLQGAEFGQAESADIDASSAMDTSEPAKEEDDYDVMQDPEFLQSVLENLPGVDPNNEAIRNAMGSLASQATKDGKKDKKEEDKK
On to B1, for which the binding result is listed as “binds”.
